The values that follow come from patent EP1175513B1, “MinK-RELATED GENES, FORMATION OF POTASSIUM [sequence] AND ASSOCIATION WITH CARDIAC [sequence]” (The University of Utah Research Foundation, priority 1999, dated 2000).

For data set [1] the following is noted: human, in vivo, po. The protocol:
To test the hypothesis that MiRP1 mutants cause cardiac arrhythmia, we screened a panel of 20 patients with drug-induced arrhythmia and 230 patients with inherited or sporadic arrhythmias and no mutations in their KVLQT1, HERG, SCN5A or KCNE1 genes.
Q9E-hMiRP1. […] The patient is a person with a history of high blood pressure, non-insulin dependent diabetes and stroke. […] The patient was admitted to the hospital with pneumonia and treated with 7 doses of intravenous erythromycin, 500 mg every 6 hours and then switched to oral clarithromycin, 500 mg every 12 hours.

For data set [2], the target named is T1, channels formed with Q9E-hMiRP1 (Homo sapiens, UniProt Q12809). Briefly: in vitro. Conditions: cho cells.
Data set [3] concerns the target channels formed with wild type hMiRP1 (Homo sapiens, UniProt Q12809). Briefly: Clarithromycin blockade of channels expressed in CHO cells. Conditions: effect of clarithromycin (Fig. 9C).
Data set [4] deals with T1, channels formed with Q9E-hMiRP1. The data set is described as above. Conditions: effect of clarithromycin (Fig. 9C).
Another data set has as its target HERG (human, UniProt Q12809 1-1159). The data set is described as follows: cell-based or functional assay.

T1 sequence (Q12809 whole entry): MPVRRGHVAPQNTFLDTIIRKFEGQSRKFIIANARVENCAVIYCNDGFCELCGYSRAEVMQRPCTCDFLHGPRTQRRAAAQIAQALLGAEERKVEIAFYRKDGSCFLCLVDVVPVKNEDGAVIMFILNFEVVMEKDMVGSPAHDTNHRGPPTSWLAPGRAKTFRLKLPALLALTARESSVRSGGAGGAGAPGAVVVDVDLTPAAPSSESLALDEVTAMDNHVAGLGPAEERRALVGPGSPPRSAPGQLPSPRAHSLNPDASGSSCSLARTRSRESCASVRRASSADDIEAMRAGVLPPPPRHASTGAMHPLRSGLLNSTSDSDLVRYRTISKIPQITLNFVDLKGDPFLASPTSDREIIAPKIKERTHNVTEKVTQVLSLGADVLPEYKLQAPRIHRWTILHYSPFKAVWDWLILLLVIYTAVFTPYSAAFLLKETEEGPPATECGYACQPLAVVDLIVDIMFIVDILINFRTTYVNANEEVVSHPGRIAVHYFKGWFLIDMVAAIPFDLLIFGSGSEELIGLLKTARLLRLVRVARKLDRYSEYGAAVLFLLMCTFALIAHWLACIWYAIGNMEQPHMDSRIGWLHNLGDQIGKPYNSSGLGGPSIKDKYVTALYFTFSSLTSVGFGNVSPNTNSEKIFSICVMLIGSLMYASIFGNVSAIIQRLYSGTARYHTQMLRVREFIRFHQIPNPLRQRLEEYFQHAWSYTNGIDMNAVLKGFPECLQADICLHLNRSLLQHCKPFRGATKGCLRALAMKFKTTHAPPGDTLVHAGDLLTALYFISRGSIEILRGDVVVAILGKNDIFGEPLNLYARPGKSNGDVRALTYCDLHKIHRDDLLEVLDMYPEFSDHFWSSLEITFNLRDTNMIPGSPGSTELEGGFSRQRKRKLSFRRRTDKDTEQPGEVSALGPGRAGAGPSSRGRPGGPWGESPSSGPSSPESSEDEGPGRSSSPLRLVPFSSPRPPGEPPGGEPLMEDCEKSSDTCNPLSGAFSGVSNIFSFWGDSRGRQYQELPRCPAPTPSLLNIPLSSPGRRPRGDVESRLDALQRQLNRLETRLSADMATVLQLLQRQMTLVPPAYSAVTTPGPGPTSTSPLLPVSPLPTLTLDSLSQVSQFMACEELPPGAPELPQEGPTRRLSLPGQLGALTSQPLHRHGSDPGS
T1 sequence (Q9Y6J6 with tags, fused parts or gaps Q9E partner): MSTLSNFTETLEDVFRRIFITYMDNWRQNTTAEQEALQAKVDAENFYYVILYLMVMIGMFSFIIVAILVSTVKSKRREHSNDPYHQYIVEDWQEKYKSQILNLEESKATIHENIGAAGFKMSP
channels formed with wild type hMiRP1, sequence (Q12809 whole entry): as the sequence (Q12809 whole entry) above
channels formed with wild type hMiRP1, sequence (Q9Y6J6 whole entry partner): as the sequence (Q9Y6J6 with tags, fused parts or gaps Q9E partner) above, with E9Q counted along it

For the molecule `CC[C@H]1OC(=O)[C@H](C)[C@@H](O[C@H]2C[C@@](C)(OC)[C@@H](O)[C@H](C)O2)[C@H](C)[C@@H](O[C@@H]2O[C@H](C)C[C@H](N(C)C)[C@H]2O)[C@](C)(OC)C[C@@H](C)C(=O)[C@H](C)[C@@H](O)[C@]1(C)O` [clarithromycin], the arrhythmia developed entry in data set [1] was “TdP and VF”. Further, the selectivity ratio in data set [2] amounted to 3. For the same molecule, the slope factor entry in data set [3] and in data set [4] was “no change” throughout.
On to M54T-hMiRP1 (from UniProt Q9Y6J6 1-123), for which, in the data set with HERG, the activation V1/2 mV was -21 mV; the deactivation ratio If/(Is + If) amounted to 0.81; the deactivation τf s was 37 ms; the deactivation τs, s is 266. Besides, the faster deactivation against wild type hMiRP1 channels with HERG was 3 fold.
On to Q9E-hMiRP1 (from UniProt Q9Y6J6 1-123), for which, in the data set with HERG, the activation V1/2 in 1 mM Ca^2+, 1 mM KCl solution is -12 mV; the activation V1/2 mV is -12 mV; the deactivation ratio If/(Is + If) came out at 0.8; the deactivation τf s was determined as 100 ms. In addition, in the data set with HERG, the deactivation τs, s was determined as 750.
In the case of T8A-hMiRP1 (from UniProt Q9Y6J6 1-123), in the data set with HERG, the activation V1/2 mV was -29 mV; the deactivation ratio If/(Is + If) came to 0.83; the deactivation τf s is 100 ms; the deactivation τs, s was 590.
For “wild type human MiRP1 (from UniProt Q9Y6J6 1-123)”, in the data set with HERG, the activation V1/2 in 1 mM Ca^2+, 1 mM KCl solution is -20 mV; the activation V1/2 mV was -21 mV; the deactivation ratio If/(Is + If) came to 0.82; the deactivation τf s amounted to 80 ms. In the data set with HERG, this molecule displayed a deactivation τs, s of 483; a faster deactivation against HERG alone (τf at -120 mV) of 3 fold; a unitary conductance (oocytes) of 8 pS.

B1: rMiRP1 (other)
chain: MTTLANLTQTLEDAFKKVFITYMDSWRRNTTAEQQALQARVDAENFYYVILYLMVMIGMFAFIVVAILVSTVKSKRREHSQDPYHQYIVEDWQQKYRSQILHLEDSKATIHENLGATGFTVSP
For the molecule B1, in the data set with HERG, the “acceleration of single-channel deactivation” value stood at 2.3 fold; the “increase in deactivation rate against HERG alone” value is 7 fold; the “increase in deactivation rate, plasma-like solution” value is approximately 2 fold.
